Patent publication US20220193133A1 (CENTURY THERAPEUTICS, published 2022)
Residue numbers refer to the chain shown, from its start. Read-outs that look alike come from different tables or passages of the source.

T1: human lysozyme (human, UniProt P61626 19-148, biotinylated)
T1 construct: also called human lysozyme protein
T1 sequence (looked up): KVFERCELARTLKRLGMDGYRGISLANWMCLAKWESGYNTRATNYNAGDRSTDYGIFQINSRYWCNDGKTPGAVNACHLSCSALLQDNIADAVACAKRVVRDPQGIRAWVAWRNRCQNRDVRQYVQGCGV

B1: huD04_CNTY1_D11 anti-idiotype VHH (periplasmic extract) (VHH)
VHH: EVQLLESGGGLVQPGGSLRLSCAASGSTFSYYYMGWYRQAPGKERELVSAISSGGSIYYADSVKGRFTISRDNSKNTLYLQMNSLRAEDTAVYYCARRTYYGDEADYWGQGTQVTVSS
notes: Screened as periplasmic extract; also called VHH of AMD87
B2: huD04_CNTY1_B12 anti-idiotype VHH (periplasmic extract) (VHH)
VHH: EVQLLESGGGLVQPGGSLRLSCAASGRTSSNYVMGWYRQAPGKEREGVSAITSGGSTYYADSVKGRFTISRDNSKNTLYLQMNSLRAEDTAVYYCAANLYSRTGAYDYWGQGTQVTVSS
notes: Screened as periplasmic extract; also called VHH of AMD82
B3: huD04_CNTY1_D10 anti-idiotype VHH (periplasmic extract) (VHH)
VHH: EVQLLESGGGLVQPGGSLRLSCAASGRTSSNYVIGWYRQAPGKEREFVSAISGGGSTYYADSVKGRFTISRDNSKNTLYLQMNSLRAEDTAVYYCATRIYTARGAGDYWGQGTQVTVSS
notes: Screened as periplasmic extract; also called VHH of AMD88
B4: huD04_CNTY1_D12 anti-idiotype VHH (periplasmic extract) (VHH)
VHH: B2 VHH with R27F, T52S, G54S, S56R, N98A, L99Y, R102G, T103Y, A105E, Y106T
notes: Screened as periplasmic extract; also called VHH of AMD86
B5: AMD77 (huD04_CNTY1_A11 anti-idiotype VHH IgG1-Fc fusion) (Fc fusion)
VHH: EVQLLESGGGLVQPGGSLRLSCAASGFTSSNYVMGWYRQAPGKEREFVSAIGSGGSTYYADSVKGRFTISRDNSKNTLYLQMNSLRAEDTAVYYCAAEIYTSGARDYWGQGTQVTVSS
modifications: Biotinylated in the FIG. 18 and FIG. 19 assays; the biotin sites are not stated.
notes: not shown: IgG1 Fc (and any hinge or linker to it)
B6: humanized B11 VHH CAR (hyLYSO_CW_P01_B11) on Nurkat cells (other, not shown: small tags and cut ends)
chain: EVQLLESGGGLVQPGGSLRLSCAASGGIFSGGRMGWFRQAPGKEREFVAAVITRGGSTYYADSVKGRFTISRDNSKNTLYLQMNSLRAEDTAVYYCAASEVTYDEGRYIGTKSTYDTWGQGTQVTVSS
notes: also called B11 (p1649); P1649
B7: p253 (other)
CAR: QVQLVESGGGLVQAGGSLRLSCAASGSSFSIYDVGWFRQAPGKEREFVAATIETGGHTSYADSVKGRFTISRDNAKNTVYLQMNSLKPEDTAVYYCYAKIVYDQGPSYYYWGQGTQVTVSS
B8: LYSO_CW_P01_D04 VHH CAR (camelid D04) on Jurkat cells (other, not shown: small tags and cut ends)
chain: QVQLVESGGGLVQAGGSLRLSCAASGRIFSIYDTIGWFRQAPGKEREFVAATITTAGITTYDDSVKGRFTISRDNAKNTVYLQMNSLKPEDTAVYYCYVRVGRGDYWGQGTQVTVSS
notes: camelid (not humanized) VHH; also called D04 (p244)
B9: humanized D04 VHH CAR (hyLYSO_CW_P01_D04) on Nurkat cells or primary T cells (other, not shown: small tags and cut ends)
chain: B8 chain with Q1E, V5L, A14P, A76S, V80L, K88R, P89A
notes: also called D04 (p1648); P1650
B10: AMD88 (huD04_CNTY1_D10 anti-idiotype VHH IgG1-Fc fusion) (Fc fusion)
chain: B3 VHH
notes: not shown: IgG1 Fc
B11: p248 (other)
CAR: QVQLVESGGGLVQAGGSLRLSCAASGSIFSFYDVGWFRQAPGKEREFVAASITKGGGTYYVDSVKGRFTISRDNAKNTVYLQMNSLKPEDTAVYYCALATPHGYDFWGQGTQVTVSS
B12: huB11_CNTY1_E11 anti-idiotype VHH (periplasmic extract) (VHH)
VHH: EVQLLESGGGLVQPGGSLRLSCAASGFAFSDYVMGWYRQAPGKEREFVSAIRSTTSTYYADSVKGRFTISRDNSKNTLYLQMNSLRAEDTAVYYCAADVWSGYEYDYWGQGTQVTVSS
notes: Screened as periplasmic extract; also called VHH of AMD75
B13: huB11_CNTY1_B11 anti-idiotype VHH (periplasmic extract) (VHH)
VHH: B12 VHH with F27L, D31S, V33A, A50V, R52S, S53G, T55G, S56E, Y58L
notes: Screened as periplasmic extract; also called VHH of AMD76

Tests used:
[1] = biological target: T2, B11 protein (humanized B11 VHH as ELISA antigen); assay: periplasmic extract ELISA, absorbance 450 nm, single point
T2 construct: Panning used B11-Fc; the ELISA legend says only 'B11 protein'

[2] = biological target: T3, D04 protein (humanized D04 VHH as ELISA antigen); assay: as above
T3 construct: Panning used biotinylated D04-Fc; the ELISA legend says only 'D04 protein'

[3] = biological target: Fc-y fragment; assay: Octet (BLI) specificity analysis, sample vs analyte
[4] = biological target: PROT939 (an off target VHH-fc soluble); assay: as above
[5] = biological target: T4, D04-Fc (humanized D04 VHH Fc fusion); assay: as above
T4 construct: also called LysoD04.Fc; not shown: Fc

[6] = biological target: total human IgG from sera; assay: as above
[7] = biological target: T5, D04-his tagged VHH (humanized D04); assay: as above
T5 construct: also called LysoD04.His; D04 his-tagged protein

[8] = biological target: T5, D04-his tagged VHH (humanized D04); assay: Octet (BLI), anti-idiotype VHH-Fc vs his-tagged VHH; table title prints B11-his, paragraph 353 ties these values to D04
[9] = biological target: T6, chicken lysozyme (Hen Egg Lysozyme) (chicken, UniProt P00698 19-147, biotinylated); assay: flow cytometry, CAR Nurkat cells + biotinylated HEL, streptavidin-APC, % positive cells
T6 construct: also called HEL; chicken egg white lysozyme

[10] = biological target: T1, human lysozyme; assay: flow cytometry, CAR Jurkat cells + 10 ug/mL biotinylated lysozyme, streptavidin-APC, % positive cells
[11] = biological target: T6, chicken lysozyme (Hen Egg Lysozyme); assay: as above
[12] = biological target: the molecule itself; assay: Octet (BLI) specificity analysis, sample vs analyte
[13] = biological target: T7, B11-his tagged VHH (humanized B11); assay: Octet (BLI), anti-idiotype VHH-Fc vs his-tagged VHH; table title prints D04-his, its footnote prints B11-his
T7 construct: also called B11-his protein; B11 his-tagged protein

[14] = biological target: B6; assay: flow cytometry, VHH-Fc on CAR Nurkat cells, 3-fold dilutions 50 to 0.02 nM, anti-Fc APC, %Fc positive cells
Excerpt: […] Fc-fusion protein was detected via anti-Fc APC, and the percentage of cells that were positive for this detection method are shown. […] Controls include (i) no VHH-Fc added and (ii) the anti-VHH cocktail detection reagent (far right). The samples shown in the graphs for each protein appear in the order as specified in the legend.

[15] = biological target: T3, D04 protein (humanized D04 VHH as ELISA …); assay: periplasmic extract ELISA, absorbance 450 nm, single point; remark: listed apart in the source
[16] = biological target: T2, B11 protein (humanized B11 VHH as ELISA …); assay: as above; remark: listed apart in the source

T6 sequence (P00698 19-147): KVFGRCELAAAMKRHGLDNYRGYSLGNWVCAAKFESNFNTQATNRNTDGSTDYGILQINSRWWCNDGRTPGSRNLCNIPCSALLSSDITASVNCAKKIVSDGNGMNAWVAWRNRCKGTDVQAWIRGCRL

Binder: B1
binding result [1]: no binding

Binder: B2
binding result [1]: no binding

Binder: B3
binding result [1]: no binding

Binder: B4
binding result [1]: no binding | binding result [2]: binds

Binder: B5
Response [3]: -0.009 | Response [4]: -0.0053 | Response [5]: 2.67 | Response [6]: -0.0155 | Response [7]: 0.337 | Kd [8]: 2.08 nM | Response [8]: 0.497 | koff [8]: 0.00145 s⁻¹ | kon [8]: 696000 M⁻¹ s⁻¹

Binder: B6
binding result [9]: binds

Binder: B7
binding result [10]: no binding (tested: 10 ug/mL) | binding result [11]: binds

Binder: B8
binding result [10]: no binding (tested: 10 ug/mL) | binding result [11]: binds

Binder: B9
binding result [9]: binds

Binder: B10
Response [3]: -0.0261 | Response [4]: -0.024 | Response [5]: 2.18 | Response [6]: -0.0338 | Response [7]: 0.0923 | Response [12]: 0.149 | Kd [8]: 72.3 nM | Response [8]: 0.289 | koff [8]: 0.0425 s⁻¹ | kon [8]: 588000 M⁻¹ s⁻¹ | Response [13]: -0.0183 | binding result [14]: no binding (tested: 50 nM)

Binder: B11
binding result [10]: no binding (tested: 10 ug/mL) | binding result [11]: no binding (tested: 10 ug/mL)

Binder: B12
binding result [15]: no binding

Binder: B13
binding result [16]: binds | binding result [15]: no binding
